The text below walks through data of paper PMC11036296.

The assay concerns the target Patched 1 (Ptch1) receptor (mouse (endogenous in C3H10T1/2)) (UniProt Q61115).
Sequence of UniProt Q61115 (Q61115 whole entry): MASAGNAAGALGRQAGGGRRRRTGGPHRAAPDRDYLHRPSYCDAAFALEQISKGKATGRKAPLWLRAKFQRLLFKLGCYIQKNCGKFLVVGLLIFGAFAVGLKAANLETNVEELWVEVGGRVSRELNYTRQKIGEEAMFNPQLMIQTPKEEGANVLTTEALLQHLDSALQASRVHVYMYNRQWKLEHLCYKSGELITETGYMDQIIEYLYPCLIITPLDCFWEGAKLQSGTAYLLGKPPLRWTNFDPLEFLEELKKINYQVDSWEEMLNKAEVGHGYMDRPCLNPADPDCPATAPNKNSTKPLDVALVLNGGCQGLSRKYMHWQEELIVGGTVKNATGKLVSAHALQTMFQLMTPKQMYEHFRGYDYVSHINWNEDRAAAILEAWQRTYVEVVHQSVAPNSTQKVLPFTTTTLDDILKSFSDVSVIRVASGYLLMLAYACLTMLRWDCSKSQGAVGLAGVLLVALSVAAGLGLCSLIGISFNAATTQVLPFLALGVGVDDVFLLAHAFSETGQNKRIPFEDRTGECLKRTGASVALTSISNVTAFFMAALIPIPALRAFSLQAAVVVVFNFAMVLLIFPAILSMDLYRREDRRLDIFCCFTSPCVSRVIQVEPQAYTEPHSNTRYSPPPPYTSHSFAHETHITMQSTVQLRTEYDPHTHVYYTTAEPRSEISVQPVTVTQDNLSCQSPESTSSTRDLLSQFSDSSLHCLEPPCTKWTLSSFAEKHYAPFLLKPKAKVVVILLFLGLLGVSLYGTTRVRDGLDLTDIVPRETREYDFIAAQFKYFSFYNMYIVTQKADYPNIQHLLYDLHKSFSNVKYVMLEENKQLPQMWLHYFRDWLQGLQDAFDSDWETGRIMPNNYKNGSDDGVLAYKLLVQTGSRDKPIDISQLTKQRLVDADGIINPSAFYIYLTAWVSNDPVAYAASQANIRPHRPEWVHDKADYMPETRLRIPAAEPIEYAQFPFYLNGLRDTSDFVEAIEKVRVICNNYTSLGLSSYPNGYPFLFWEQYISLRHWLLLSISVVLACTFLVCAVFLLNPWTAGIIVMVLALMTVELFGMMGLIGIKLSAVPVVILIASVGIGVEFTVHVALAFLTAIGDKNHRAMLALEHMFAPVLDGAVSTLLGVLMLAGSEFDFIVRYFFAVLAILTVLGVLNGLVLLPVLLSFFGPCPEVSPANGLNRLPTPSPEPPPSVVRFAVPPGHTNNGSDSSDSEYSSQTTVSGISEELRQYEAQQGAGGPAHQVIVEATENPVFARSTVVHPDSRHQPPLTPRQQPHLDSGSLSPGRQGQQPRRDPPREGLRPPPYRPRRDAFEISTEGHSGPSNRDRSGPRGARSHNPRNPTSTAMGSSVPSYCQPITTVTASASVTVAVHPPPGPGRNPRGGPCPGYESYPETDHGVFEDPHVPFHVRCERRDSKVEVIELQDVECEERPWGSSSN

As to “^C25S;Δ26–36Shh^C (from UniProt Q62226 25-198) (ligand)”, the Alp1 activity of C3H10T1/2 cells (differentiation into osteoblasts) stood at 0.39 au.

For “^C25S;Δ26–33Shh^C (from UniProt Q62226 25-198) (ligand)”, the Alp1 activity of C3H10T1/2 cells (differentiation into osteoblasts) worked out at 1.65 au.

In the case of “^C25S;Δ26–32Shh^C (from UniProt Q62226 25-198) (ligand)”, the Alp1 activity of C3H10T1/2 cells (differentiation into osteoblasts) is 1.26 au.

The substance “^C25S;Δ26–31Shh^C (from UniProt Q62226 25-198) (ligand)” had an Alp1 activity of C3H10T1/2 cells (differentiation into osteoblasts) of 1.41 au.

On to “^C25S;Δ26–34Shh^C (from UniProt Q62226 25-198) (ligand)”, for which the Alp1 activity of C3H10T1/2 cells (differentiation into osteoblasts) amounted to 0.7 au.

Regarding “^C25S;Δ26–37Shh^C (from UniProt Q62226 25-198) (ligand)”, the Alp1 activity of C3H10T1/2 cells (differentiation into osteoblasts) was determined as 0.46 au.

In turn, “^C25S;Δ26–35Shh^C (from UniProt Q62226 25-198) (ligand)” returned an Alp1 activity of C3H10T1/2 cells (differentiation into osteoblasts) of 0.38 au.

The substance “Shh^C, soluble depalmitoylated (N-terminally processed), C-cholesteroylated Sonic hedgehog released in the presence of 10% serum (ligand)” showed an Alp1 activity of C3H10T1/2 cells (differentiation into osteoblasts) of 1.5 au and an Alp1 activity of C3H10T1/2 cells (differentiation into osteoblasts), with the Shh-neutralising antibody 5E1 (1 µg/mL) of 0.26 au.

In the case of “^C25SShh^C, unpalmitoylated cholesteroylated soluble Shh (from UniProt Q62226 25-198) (ligand)”, the Alp1 activity of C3H10T1/2 cells (differentiation into osteoblasts) worked out at 1.71 au and the Alp1 activity of C3H10T1/2 cells (differentiation into osteoblasts), with the Shh-neutralising antibody 5E1 (1 µg/mL) came to 0.21 au.

“^C25S;Δ26–38Shh^C (from UniProt Q62226 25-198) (ligand)”: the Alp1 activity of C3H10T1/2 cells (differentiation into osteoblasts) was found to be 0.36 au.
